Measured values: the Human Domainome abundance scans (Beltran et al. 2025)
± gives the uncertainty stated by the source.

B1: Protein maelstrom homolog, residues 3 to 71; numbered along this chain, Q96JY0 (parent)
chain: NRKASRNAYYFFVQEKIPELRRRGLPVARVADAIPYCSSDWALLREEEKEKYAEMAREWRAAQGKDPGP

Variants of: B1
Assay: abundance fitness (aPCA) (normalised: wild type 0, dead -1); higher = more abundant; growth selection in yeast, the domain comes from the species named
Conditions: Homo sapiens

Row | Variant | abundance fitness
1 | K51P | -0.453 ± 0.46
2 | K51R | -0.378 ± 0.43
3 | A56K | -0.671 ± 0.12
4 | A56C | 0.027 ± 0.084
5 | A56L | -0.296 ± 0.057
6 | A56D | -0.31 ± 0.097
7 | A56H | -0.087 ± 0.042
8 | A56G | -0.302 ± 0.045
9 | A56W | -0.236 ± 0.05
10 | A56P | -0.651 ± 0.1
11 | A56S | -0.02 ± 0.036
12 | A56V | -0.268 ± 0.058
13 | A56E | -0.101 ± 0.071
14 | A56Q | -0.226 ± 0.078
15 | A56F | 0.124 ± 0.13
16 | A56R | -0.523 ± 0.045
17 | A56N | -0.16 ± 0.13
18 | A56Y | 0.208 ± 0.14
19 | A56I | -0.539 ± 0.23
20 | G64E | 0.088 ± 0.06
21 | G64A | 0.146 ± 0.034
22 | G64R | 0.116 ± 0.047
23 | G64M | -0.008 ± 0.068
24 | G64D | 0.207 ± 0.091

Row | Variant | abundance fitness
25 | G64K | 0.048 ± 0.071
26 | G64Q | 0.165 ± 0.073
27 | G64Y | 0.181 ± 0.12
28 | G64S | 0.035 ± 0.049
29 | G64N | 0.214 ± 0.095
30 | G64L | -0.018 ± 0.054
31 | G64V | 0.196 ± 0.046
32 | G64P | -0.022 ± 0.077
33 | G64C | 0.082 ± 0.082
34 | A53E | 0.13 ± 0.075
35 | A53C | 0.043 ± 0.1
36 | A53I | -0.263 ± 0.22
37 | A53V | -0.006 ± 0.062
38 | A53S | 0.082 ± 0.087
39 | A53M | -0.322 ± 0.1
40 | A53K | -0.226 ± 0.11
41 | A53H | 0.037 ± 0.18
42 | A53Y | 0.265 ± 0.44
43 | A53W | -0.097 ± 0.057
44 | A53N | -0.144 ± 0.21
45 | A53R | 0.035 ± 0.045
46 | A53G | -0.106 ± 0.052
47 | A53T | -0.15 ± 0.1
48 | A53P | -0.589 ± 0.13

Row | Variant | abundance fitness
49 | A53Q | -0.194 ± 0.11
50 | A53D | -0.082 ± 0.24
51 | R45H | -0.072 ± 0.11
52 | R45L | -0.114 ± 0.048
53 | R45V | -0.151 ± 0.053
54 | R45E | -0.003 ± 0.07
55 | R45Q | 0.027 ± 0.091
56 | R45M | -0.057 ± 0.08
57 | R45N | 0.108 ± 0.12
58 | R45A | -0.001 ± 0.061
59 | R45F | -0.502 ± 0.15
60 | R45K | -0.023 ± 0.083
61 | R45D | -0.219 ± 0.13
62 | R45P | 0.147 ± 0.097
63 | R45W | -0.511 ± 0.088
64 | R45I | -0.431 ± 0.23
65 | R45C | 0.016 ± 0.11
66 | R45G | -0.111 ± 0.056
67 | R45Y | -0.428 ± 0.15
68 | E54D | 0.133 ± 0.082
69 | E54N | -0.125 ± 0.09
70 | E54F | -0.396 ± 0.12
71 | E54Y | -0.293 ± 0.065
72 | E54S | 0.107 ± 0.056

Row | Variant | abundance fitness
73 | E54T | 0.212 ± 0.073
74 | E54V | -0.068 ± 0.054
75 | E54I | 0.076 ± 0.095
76 | E54Q | -0.147 ± 0.076
77 | E54W | -0.299 ± 0.047
78 | E54G | -0.049 ± 0.044
79 | E54C | -0.161 ± 0.075
80 | E54P | -0.346 ± 0.14
81 | E54K | 0.027 ± 0.076
82 | E54A | -0.123 ± 0.059
83 | E54L | -0.13 ± 0.058
84 | E54H | -0.161 ± 0.092
85 | E46I | -0.315 ± 0.24
86 | E46H | -0.101 ± 0.18
87 | E46G | -0.031 ± 0.055
88 | E46F | -0.215 ± 0.12
89 | E46L | -0.139 ± 0.05
90 | E46D | -0.266 ± 0.13
91 | E46P | 0.066 ± 0.1
92 | E46Y | -0.339 ± 0.14
93 | E46C | -0.046 ± 0.1
94 | E46M | -0.134 ± 0.097
95 | E46V | -0.38 ± 0.077
96 | E46K | 0.012 ± 0.11

Row | Variant | abundance fitness
97 | E46R | -0.14 ± 0.045
98 | E46T | -0.188 ± 0.071
99 | E46N | -0.09 ± 0.13
100 | E46A | -0.23 ± 0.068
101 | Q63R | 0.054 ± 0.042
102 | Q63W | -0.37 ± 0.091
103 | Q63F | -0.202 ± 0.16
104 | Q63E | -0.046 ± 0.062
105 | Q63D | -0.121 ± 0.13
106 | Q63H | -0.31 ± 0.13
107 | Q63N | 0.023 ± 0.083
108 | Q63P | -0.08 ± 0.067
109 | Q63K | -0.019 ± 0.071
110 | Q63L | -0.321 ± 0.051
111 | Q63S | 0.091 ± 0.057
112 | Q63A | -0.018 ± 0.066
113 | Q63Y | -0.242 ± 0.16
114 | Q63G | 0.126 ± 0.043
115 | Q63C | -0.255 ± 0.13
116 | Q63V | -0.089 ± 0.059
117 | E58S | -0.24 ± 0.097
118 | E58A | -0.086 ± 0.071
119 | E58W | -0.523 ± 0.12
120 | E58I | -0.279 ± 0.14

Row | Variant | abundance fitness
121 | E58G | -0.082 ± 0.063
122 | E58V | -0.256 ± 0.1
123 | E58K | -0.014 ± 0.1
124 | E58D | -0.09 ± 0.26
125 | E58R | -0.189 ± 0.057
126 | E58F | -0.319 ± 0.19
127 | E58P | -0.521 ± 0.16
128 | E58C | -0.245 ± 0.13
129 | E58M | -0.594 ± 0.17
130 | E58T | -0.392 ± 0.11
131 | E58Q | -0.17 ± 0.1
132 | E58L | -0.165 ± 0.071
133 | E58Y | -0.972 ± 0.39
134 | E58H | 0.246 ± 0.18
135 | E50D | -0.232 ± 0.16
136 | R60T | 0.322 ± 0.24
137 | K65E | -0.082 ± 0.078
138 | K65G | -0.048 ± 0.046
139 | K65L | -0.175 ± 0.068
140 | K65Q | -0.084 ± 0.089
141 | K65F | -0.117 ± 0.1
142 | K65P | -0.134 ± 0.092
143 | K65C | 0.074 ± 0.13
144 | K65H | -0.259 ± 0.11

Row | Variant | abundance fitness
145 | K65M | -0.497 ± 0.14
146 | K65A | -0.206 ± 0.071
147 | K65N | -0.116 ± 0.14
148 | E48D | 0.06 ± 0.2
149 | R57D | -0.072 ± 0.21
150 | R57F | -0.332 ± 0.23
151 | R57S | -0.034 ± 0.09
152 | R57V | -0.093 ± 0.099
153 | R57L | 0.003 ± 0.073
154 | R57I | -0.398 ± 0.42
155 | R57W | -0.378 ± 0.094
156 | R57G | -0.159 ± 0.068
157 | R57T | -0.054 ± 0.098
158 | R57Y | -0.236 ± 0.23
159 | R57E | 0.021 ± 0.097
160 | R57K | 0.001 ± 0.13
161 | R57N | -0.135 ± 0.17
162 | R57H | 0.206 ± 0.14
163 | R57Q | -0.104 ± 0.1
164 | R57M | -0.01 ± 0.11
165 | R57C | -0.089 ± 0.15
166 | R57A | 0.05 ± 0.078
167 | L44Y | -1.09 ± 0.25
